Source: the RNAGym collection of RNA variant scans (doi:10.1073/pnas.2313332121)
Variants at the floor of the assay were thinned out.

B1: TPR 5TU (parent)
chain: GGAUCUUCUCGAUCUAACAAAAAAGACAAAUCUGCCACAAAGCUUGAGAGCAUCUUCGGAUGCAGAGGCGGCAGCCUUCGGUGGCGCGAUAGCGCCAACGUUCUCAACUAUGACACGCAAAACGCGUGCUCCGUUGAAUGGAGUUUAUCAUG

Variants of: B1
Assay: polymerase ribozyme fitness, log enrichment relative to wild type (log ratio); higher = more active; in vitro selection for triplet polymerase activity
Method in brief: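 After PCR construction and transcription, each subunit's mutant library from a heterodimeric triplet polymerase ribozyme was annealed with a biotinylated primer, the partner subunit and triplets. Incubation was frozen, at −7 °C, and extended constructs were gel-excised, bound to streptavidin beads and amplified by RT-PCR, in one selection round done in triplicate. Fitness is the logarithm of a genotype's enrichment divided by that of the wild type, from inverse-variance-weighted replicate averages of Illumina-sequenced inputs and outputs. The base of the logarithm is 2, and genotypes needed ≥10 input reads and ≥1 read per output.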
In the case of C10U A39G C54G C63A G70C C93U G141A, the “polymerase ribozyme fitness (log ratio)” value is reported as at most -4.2. With A12G C18U G83U A89G C96U the “polymerase ribozyme fitness (log ratio)” value was -1.73. For A12C A52C C87U A89C, the “polymerase ribozyme fitness (log ratio)” value was -3.43. With A12G U15A U55G C87G C99G C114A A119U the “polymerase ribozyme fitness (log ratio)” value was at most -4.2. In the case of A12C U90G A107G A138G, the “polymerase ribozyme fitness (log ratio)” value is reported as at most -4.2. In the case of C10G A40C U78G G84U G88U G141U, the “polymerase ribozyme fitness (log ratio)” value is reported as at most -4.2. With G11A C85U the “polymerase ribozyme fitness (log ratio)” value was -1.56. In the case of G11A C85A, the “polymerase ribozyme fitness (log ratio)” value is reported as -2.76. In the case of C10U A39G U102C, the “polymerase ribozyme fitness (log ratio)” value is reported as at most -4.2. In the case of A12G C85G, the “polymerase ribozyme fitness (log ratio)” value is reported as -1.96. In the case of A12G C85U, the “polymerase ribozyme fitness (log ratio)” value is reported as 0.000103. In the case of C10U A39G G42U G59A A60C C63U A91U C105U A115C A142C, the “polymerase ribozyme fitness (log ratio)” value is reported as at most -4.2. For A12G U13C C38U G58A A73U, the “polymerase ribozyme fitness (log ratio)” value was -1.35. For G11A C51U G81C G92A U151A, the “polymerase ribozyme fitness (log ratio)” value was at most -4.2. For A12G U144G, the “polymerase ribozyme fitness (log ratio)” value was 0.592. With A12U A20G A21C U31A C35G G86U A91G A119U G128C the “polymerase ribozyme fitness (log ratio)” value was -3.91. In the case of C10U C76U A91U C95A A113U A120U, the “polymerase ribozyme fitness (log ratio)” value is reported as at most -4.2. In the case of A12G C14A C57A C85G, the “polymerase ribozyme fitness (log ratio)” value is reported as -3.75. For C10U A23U U33G C96G A115C, the “polymerase ribozyme fitness (log ratio)” value was at most -4.2. In the case of A12C A24U A37G A52C C75U C93U, the “polymerase ribozyme fitness (log ratio)” value is reported as at most -4.2. In the case of A12G A40G U44A U45A C93G A120U G141U, the “polymerase ribozyme fitness (log ratio)” value is reported as at most -4.2. In the case of A12C A30G C38A C51A U56G C85G C95U A106G U111A, the “polymerase ribozyme fitness (log ratio)” value is reported as at most -4.2. For A12C G46U A113U C118U, the “polymerase ribozyme fitness (log ratio)” value was -3.95. In the case of C10G A39U G84A, the “polymerase ribozyme fitness (log ratio)” value is reported as at most -4.2. In the case of G11C A19G A52G G68C A97G C132A U134C U144A, the “polymerase ribozyme fitness (log ratio)” value is reported as at most -4.2. With G11U C18G C54A G88A C118A the “polymerase ribozyme fitness (log ratio)” value was at most -4.2. In the case of G11U C14G A20G C27G A52U G80A A120U G141U U144G, the “polymerase ribozyme fitness (log ratio)” value is reported as at most -4.2. With C10G A30U C43G G58A G68A G80A A113C the “polymerase ribozyme fitness (log ratio)” value was at most -4.2. For C10G A73G G92U, the “polymerase ribozyme fitness (log ratio)” value was at most -4.2. For G11C G25U A52C C54U C95U A107G U144A, the “polymerase ribozyme fitness (log ratio)” value was at most -4.2. For G11C A23U G48C C79A U82G G94U A142U, the “polymerase ribozyme fitness (log ratio)” value was at most -4.2. With G11A A49G A60U the “polymerase ribozyme fitness (log ratio)” value was -2.63. With A12G C72U G88U A120U G141U the “polymerase ribozyme fitness (log ratio)” value was at most -4.2. For A12C A24G A52C A60C, the “polymerase ribozyme fitness (log ratio)” value was at most -4.2. In the case of C10G C76A G83A A91U A106C C108A U130A, the “polymerase ribozyme fitness (log ratio)” value is reported as at most -4.2. For G11A U55A, the “polymerase ribozyme fitness (log ratio)” value was -1.11. In the case of C10G A52G C54U G58C C79A C95U, the “polymerase ribozyme fitness (log ratio)” value is reported as -3.91. With A12G C87A the “polymerase ribozyme fitness (log ratio)” value was at most -4.2. For C10U U15A G50C C76U C85A, the “polymerase ribozyme fitness (log ratio)” value was at most -4.2. In the case of C10U U15G A23U C43U U82C G92U U104C, the “polymerase ribozyme fitness (log ratio)” value is reported as at most -4.2. In the case of G11A A30C C99A C118U U145G, the “polymerase ribozyme fitness (log ratio)” value is reported as at most -4.2. For G11U A16U A52C G58C G65A C79A G83U C93U C118A, the “polymerase ribozyme fitness (log ratio)” value was at most -4.2. For A12G U33C A73G U130G, the “polymerase ribozyme fitness (log ratio)” value was -3.56. In the case of A12G C93G, the “polymerase ribozyme fitness (log ratio)” value is reported as -2.99. For G11A A26G U55A C87A G124C G143C U148C, the “polymerase ribozyme fitness (log ratio)” value was at most -4.2. For G11C C14A A16G C87U, the “polymerase ribozyme fitness (log ratio)” value was at most -4.2. In the case of C10U A17C C38U G58C C96G, the “polymerase ribozyme fitness (log ratio)” value is reported as -3.69. For G11C C125G A142C, the “polymerase ribozyme fitness (log ratio)” value was at most -4.2. For A12G A28C C79U U82C G86U G88A A106U C129U U148G G152U, the “polymerase ribozyme fitness (log ratio)” value was at most -4.2. In the case of C10U A28U G94A U127G, the “polymerase ribozyme fitness (log ratio)” value is reported as -4.04. With G11A A91G C114U U144C the “polymerase ribozyme fitness (log ratio)” value was -4.14. For A12G U15G C69A C75U A106G A120G, the “polymerase ribozyme fitness (log ratio)” value was -2.52. With C10U U77G C87A A91C C108U G133A the “polymerase ribozyme fitness (log ratio)” value was at most -4.2. With C10U C54A C69U C75U C87A the “polymerase ribozyme fitness (log ratio)” value was at most -4.2. For C10U G42C U53A A66G A91G A110C, the “polymerase ribozyme fitness (log ratio)” value was at most -4.2. For C10U C87U, the “polymerase ribozyme fitness (log ratio)” value was -2.87. With A12G C32U C85A A137C the “polymerase ribozyme fitness (log ratio)” value was at most -4.2. In the case of C10G U61A C93A U139A, the “polymerase ribozyme fitness (log ratio)” value is reported as at most -4.2. In the case of C10U G84U, the “polymerase ribozyme fitness (log ratio)” value is reported as -4.13. For G11A U56A C76U U111C U148A, the “polymerase ribozyme fitness (log ratio)” value was at most -4.2. In the case of G11A C51G C87G A89U C125A U135G, the “polymerase ribozyme fitness (log ratio)” value is reported as at most -4.2. For C10G C14U C36A C79U G92U, the “polymerase ribozyme fitness (log ratio)” value was at most -4.2. For C10U G25U A40U C79U G84A A142C, the “polymerase ribozyme fitness (log ratio)” value was at most -4.2. With A12C A20U C79U G84U the “polymerase ribozyme fitness (log ratio)” value was at most -4.2. For C10U C54U U55G, the “polymerase ribozyme fitness (log ratio)” value was at most -4.2. In the case of G11C A20U A40U U82G G83A C93A C108A, the “polymerase ribozyme fitness (log ratio)” value is reported as at most -4.2. For A12G G58A G81C G84A G133C U144G, the “polymerase ribozyme fitness (log ratio)” value was -1.22. In the case of G11A C32A C93U, the “polymerase ribozyme fitness (log ratio)” value is reported as at most -4.2. With A12C C114U the “polymerase ribozyme fitness (log ratio)” value was -2.51. For C10G A37U U55A G94A C95G G140C, the “polymerase ribozyme fitness (log ratio)” value was at most -4.2. In the case of A12C U53A C125G A150U U151G, the “polymerase ribozyme fitness (log ratio)” value is reported as at most -4.2. In the case of G11A A39U, the “polymerase ribozyme fitness (log ratio)” value is reported as -3.28. In the case of A12G C63U U134A, the “polymerase ribozyme fitness (log ratio)” value is reported as -2.26. With G11A A41U A60G U77C C87A the “polymerase ribozyme fitness (log ratio)” value was at most -4.2. With C10U C54U G71U C85A C96G G133C U145G G152A the “polymerase ribozyme fitness (log ratio)” value was at most -4.2. For A12C U33A G42U A60G C93G, the “polymerase ribozyme fitness (log ratio)” value was at most -4.2. In the case of G11U C69U U134C, the “polymerase ribozyme fitness (log ratio)” value is reported as -1.33. With A12G U45A C57G U78A G80U C103A C118G the “polymerase ribozyme fitness (log ratio)” value was at most -4.2. For A12C C27U C35U A52C C75A A115C, the “polymerase ribozyme fitness (log ratio)” value was at most -4.2. With A12C U31A A47G C79A the “polymerase ribozyme fitness (log ratio)” value was at most -4.2. For C10G U61C G86C C105G A119C, the “polymerase ribozyme fitness (log ratio)” value was at most -4.2. With G11A C85U G92C G143A the “polymerase ribozyme fitness (log ratio)” value was -4.01. In the case of C10U A12C G34A G92C, the “polymerase ribozyme fitness (log ratio)” value is reported as -4.16.
